This note sets out measurements from US20060148016A1.

The test deals with Alexa Fluor 594 labelled calmodulin (Molecular Probes). The experiment in a line: gel filtration assay (Example 3): Alexa Fluor 594 labelled calmodulin eluting with the particles; reference is ferritin particles without binding molecule. For orientation: SEC sorts molecules by how far they enter the pores of the column.

For “Ferritin based particles expressing cbp on their surface (CBP-Human ferritin light chain fusion protein, plasmid pCBPHFI) (from UniProt P02792 2-175) (peptide)”, the fold signal as compared to particles produced with pET-26(+)rHuLFt came out at 4.1 fold.
